Measured values: the nanobody polyreactivity screen of Harvey et al. (2022)

Assay: yeast display, Sf9 membrane polyspecificity reagent, FACS + sequencing; frameworks hold sequencing errors
How it was run: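 Nanobodies came from a synthetic yeast display library in Saccharomyces cerevisiae BJ5465, induced with galactose for 36–48 hours and stained for 1 hour at 4 °C with 10% biotinylated, detergent-solubilized Sf9 membrane reagent. Cells were enriched on streptavidin microbeads and then FACS-sorted, with low and high (top ~1%) gates set on anti-HA fluorescence for expression and streptavidin fluorescence for reagent binding. Each polyreactivity label reflects the gate a clone came from. Genes were amplified by colony PCR, sequenced by MiSeq 2 × 250 and filtered by CDR length.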

Sequence	polyreactivity (PSR sort gate)
QVQLVESGGGLVQEGGSLRLSCASSGFTFAYNAMVLYRQAPGKERELVAGINSSGDGTYYADSVKGRFTISRDNAKNTVYLQMNSLKPEETAVYYCAADYTRFYPDGSDVDYDYWGQGTQVTVSS	low polyreactivity
QVQLVESGGGLVQAGGSLRLSCAASGRIFRYNTLGWYRQAPGKERELVAAINSSGGRTYYADSVKGRFTISRDNAKNTVYLQMNSLKPEDTAVYYCAAVIYVLSGPGYDYWGQGTQVTVSS	high polyreactivity
QVQLVESGGGLVQAGGSLRLSCAASGSIFSPNDMGWYRQAPGKERELVAAITSAGSTYYADSVKGRFTISRDNAKNTVYLQMNSLKPEDTAVYYCSASYISVTDYAYFPLWYGYWGQGTQVTVSS	low polyreactivity
QVQLVESGGGLVQAGGSLRLSCAASGFTIPYKAMGWYRHAPGKERELVAAISRSGTRTYYADSVKGRFTISRDNAKNTVYIQMNSLKPEDTAVYYCAKDTIGGASPHYYWGQGTQVTVSS	high polyreactivity
QVHLVESGGGLVQAGGSLRLSCAASGLTFHRYAMGWYRQAPGKERELVAAINYSGGRTYYADSVKGRFTISRDNAKNSVYLQMNCLKPEDTEVYYCAAPRASGYYWGQGTQGTVSS	high polyreactivity
QVQLVESGGGLVQAGGSLRLSCAASGSTFYGNAMGWYRQAPGKERELVATISWSGGSTYYADSVKGRFTISRDNAKNTVYLQMNSLKPEDTAVYYCNAEITTKSLVTRYSWYGGDYWGQGTQVTVSS	low polyreactivity
QVQLVESGGGLVQAGGSHRLSCAASGSIFSTYAMGWYRQAPGKERELVAAITSDGTYADSVKGRFTISRDNARNTVYLQMNSLKPEDTAVYYCAAYYPYTRHGDYWGQGTQVTVSS	low polyreactivity
QVQLVESGGGLVQAGGSLRLSCAASGRTFAVYAMGWYRQAPGKERELVAAISRRGGSTYYADSVKGRFTISRDNAKNTVYLQMNSLKPEDTAVYYCATDNSQSTYPYDYWGQGTQVTVSS	high polyreactivity
QDQLVESGGGLVQAGGSLRLSCAASGSIFGGYGMGWYRQAHGKERELVAAITSGSSTYYADSVKGRFTISRDNAKNTVYLQMNSLKPEDTAVYYCAARPYPNSAYEGDYWGRGTQVTVSS	low polyreactivity
QVQLVETGPGLVQAGGSLRLSCAASGSIFGTYAMGWYRQAPGKERELVAAITGNGGRTYYADSVKGRFTISRDNAKNTVFLQMNSLKPEDTAVYYCAKATSRRGFYDWGPGTQVTVSS	high polyreactivity
QVQLVESGGGLVKAGGSLRISCAASGFILGQYAMGWYRQAPGKERELVAAISRSSSTTYADSVKGRFTISRDKAKNTVYLQMNSLNPEDTAVYYCAAYYWYVTYFRREIAYEYWGQGTQVTVSS	low polyreactivity
QVQLVESGGGLVQAGGSLRLSCAASGSTFYYNAMGWYRQAPGKERELVAAITSSGGRTYYADSVKGRFTISRDNAKNTVYLQMNSLKPEDTAVYYCAKREASSRWPYDYWGQGTQVTVSS	low polyreactivity
QVQLVESGGGLVQAGGSLRLSCAASGRIFYGYSMGWSRQATGKEWELVAAISSSGGSTYYADSVKGRFTISRDNAKNTVSLQRNSVKPEDTAVYYCNAQRYRPGYWYDYWGQGTQVTVSS	high polyreactivity
QVQLVESGGGLVQAGGSLRLSCAASGSTFVLYAMGWYRQAPGKERELVAAITKRGGNTYYADSVKGRFTISRDNAKNTVYLQMNSLKPEDTAVYYCAADHVRSPFDSWGQGTQVTVSS	low polyreactivity
QVQLVESGGGLVQAGGSLRLSCAASGFTYGANTMGWYRQAPGKERELVADISVRGDRTSYADSVKGRFTISRDNAKNTVYLPMNSLKPEDTAVYYCATDIYQHAKRRYDYWGQGTQVTVSS	low polyreactivity
QVQLVESGGGLDQAGGSLRLSCAASGMTFHPYAMGWYRQAPGKERELVAAISSRGTSTYYADSVKGRFTISRDIAKNTVYLQMNSLKPEDTAVYYCAAEVITIGLYRYGYWGQGTQVTVSS	high polyreactivity

Sequence	polyreactivity (PSR sort gate)
HVQLVESGGGLVHAGGSLRLRCAASGFTFTTYAMGWYRQAPWKEMELVARISRRSGSTYYADSVKGRFTLSRDNAKNTVYLQMNSLKPDDTAVYYCNADVDRSTTIFDYWGQGTQVTVSS	high polyreactivity
QVHLVESGGGLVQAGGSLRLSCAASGSTIDYKAMGWYRQAPGKERELVAAITTIGGSTYYADSVKGRFTISRDNAKNTVYLQMNSLKPEDTAVYYCAADLRVWGRSGYDYWGQGTQVTVSS	low polyreactivity
QVQLVESGGGLVQAGGSLRLSCAASGSTFGANAMGLYRQAPGKEREFVAAISRSGVRTYYADSVKGRFTISRDNAQNTVYLQMNSLKPEDTAVYYCAADGYWWTYTRYDYWGQGTQVTVSS	low polyreactivity
QVQLVESGGGLVQAGGSLRLSCAASGFTFYWNAMGWSRQAPGKERELVAAINGGDSTNYADSVKGRFTISRDNAKNTVYLQMNSLKPEDTAVYYCAAEPSLEAWTAFGSYYWGQGTQVTVSS	low polyreactivity
QVQLVESGGGLVQAGGSLRLSCAASGFTFWRNTMGWSRQAPGKERELVAAIDRSGSSTYYADSEKGRFTISRDNATNTVYLQMNSLKPEDTAVYYCAAAHTYFTPYGDYWGQGTQVTVSS	low polyreactivity
QVQLVESVRGLVQAGGSLRLSCDASAFIFRSYAMGWNRQAPGKERELVAVISRRGVNTHYADSVKGRFSISRDNAKNTVYLQINSLKPEDTAVYYCAAELSYRGYPYDYWGQGTQVTVSS	high polyreactivity
QVQLVESGGGLVQAGGSLRLSCAASGIIFGTYAMGWYRQAPGKERELVASITNGGNTNYADSVKGRFTISRDNAKNTVYLQMNSLKPEDTAVYYCAKDVPYWRPVVRYDYWGQGTQVTVSS	low polyreactivity
QVQLVESGGGLVQAGGSLRLSCAASGITFQYYAMGWYRQAPGKERELVAAITSSGVSTYYADSVKGRFTISRDNAKNTVYLQMNSLKPEDTAVYYCNTVVRGWSTSAYDYWGQGTQVTVSS	low polyreactivity
QVQLVESVGGLVQAGGSLRLSCAASGSIFGTYAMGWYRQAPGKERELVAAISWRGGTYYADSVKGRFTISRDNAKNTVYLQMNSLKPEDTAVYYCNKLYTHRALGRLDYWGQGTQVTVSS	high polyreactivity
QVQLVESGGVLVQAGGSLRLSCAASGSIFGSYGMGWYRQAPGKERELVAAIRVSGGSTYYADSVKGRFTISRDNAKNTVYLQMNSLKPEDTAVYYCAARARSTPRKYYYTRGYWGQGTQVTVSS	high polyreactivity
QVQLVESGGGLVQAGGSLRLSCAASGSILYTYAMGWYRQAPGKERELVAAISRSGGSTYYADSVKGRFTISRDTAKNTVYLQMNSLKPEDTAVYYCNAVRYLTRLGRYDYWGQGTQVTVSS	high polyreactivity
QVKLEDSGGGLVQAGGSLRLSCAASGSTFEKYVMGWYRQAPGKERELVAAITYSGDSTYYADSVKGRFTISRDNAKNTVYLQMNSLKPEDTAVYYCAAKTTRTSIPRKGRGYYYWGQGTQVTVSS	high polyreactivity
QVQLVESGGGLVQAGGSLRLSCAASGFTFYGYAMGWYRQAPGKERELVAAITSSGGSTYYADSVKGRFTISRDNAKNTVYLQMNSLKPEDTAVYYCAVVTILVFRYVVPYDYWGQGTQVTVSS	high polyreactivity
QVQLVESGGGLVQAGGSLRLSCAASGRTFRRYAMGWYRQAPGKERELVAAISYSGTTTYYADSVKGRFTISRDNAKNTVYLQMNSLKPEDTAVYYCNKATAFGLDYWGQGTQVTVSS	high polyreactivity
QVQLVESGGGLVQAGGSLRLSCAASGSTFPFNAMGWYRQAPGKERELVAVITYSGGSTYYADSVKGRFTISRDNAKNTVYLHMNSLKPVVTAVYYCAADVYYWGSTYYYWGLGTQVTVSS	high polyreactivity
